# According to patent US20210130452A1 (Merck KGaA, published 2021):
# T1: human IL-17F (human, UniProt Q96PD4 31-163, biotinylated with Sulfo-NHS-LC-Biotin in the AlphaScreen assays only)
# T1 construct: also called hIL-17F; recombinant human IL-17F
# T1 sequence: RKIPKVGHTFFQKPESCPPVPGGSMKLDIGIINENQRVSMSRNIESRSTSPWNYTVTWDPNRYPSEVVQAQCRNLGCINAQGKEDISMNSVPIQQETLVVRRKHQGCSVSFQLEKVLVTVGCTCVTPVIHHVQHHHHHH
# T2: marmoset IL-17F (marmoset, UniProt A6N6I9 31-163)
# T2 sequence (looked up): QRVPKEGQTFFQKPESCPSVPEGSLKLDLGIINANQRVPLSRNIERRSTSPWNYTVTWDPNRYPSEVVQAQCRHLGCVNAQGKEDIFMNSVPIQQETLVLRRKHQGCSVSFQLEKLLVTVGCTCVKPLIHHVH
# T3: human IL-17F (human, UniProt Q96PD4 31-163)
# T3 construct: GenBank AF384857, expressed in Hek293 as 6-His C-terminal tagged protein; also called hIL-17F; IL-17F-6HIS
# T3 sequence: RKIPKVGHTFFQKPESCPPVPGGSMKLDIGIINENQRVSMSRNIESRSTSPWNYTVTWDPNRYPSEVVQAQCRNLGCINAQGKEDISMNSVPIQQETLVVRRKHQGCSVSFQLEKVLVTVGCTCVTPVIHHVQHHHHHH
# T4: rat IL-17F (rat, UniProt Q5BJ95 29-161)
# T4 sequence (looked up): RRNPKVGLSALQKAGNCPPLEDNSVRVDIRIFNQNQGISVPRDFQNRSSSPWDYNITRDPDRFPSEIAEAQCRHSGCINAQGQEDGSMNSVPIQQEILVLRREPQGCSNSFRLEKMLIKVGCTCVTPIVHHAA
# T5: rat IL-17A (rat, UniProt Q61453 18-150, limits assumed)
# T5 sequence (looked up): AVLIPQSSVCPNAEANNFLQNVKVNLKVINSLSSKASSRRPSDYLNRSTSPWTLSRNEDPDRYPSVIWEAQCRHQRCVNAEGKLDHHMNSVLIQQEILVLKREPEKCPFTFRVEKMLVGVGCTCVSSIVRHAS
# T6: mouse IL-17A (mouse, UniProt Q62386 26-158)
# T6 sequence (looked up): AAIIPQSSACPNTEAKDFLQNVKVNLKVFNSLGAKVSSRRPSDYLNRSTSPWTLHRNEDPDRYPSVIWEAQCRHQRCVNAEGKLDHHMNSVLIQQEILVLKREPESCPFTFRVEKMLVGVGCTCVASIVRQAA
# T7: marmoset IL-17A (marmoset, IL-17A is a disulfide-linked homodimer. One chain is given.)
# T7 chain: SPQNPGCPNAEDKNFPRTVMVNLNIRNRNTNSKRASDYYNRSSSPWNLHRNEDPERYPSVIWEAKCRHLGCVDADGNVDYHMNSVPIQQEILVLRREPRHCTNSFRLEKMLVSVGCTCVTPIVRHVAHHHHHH
# B1: 18B05 (VHH)
# VHH: EVQLVKSGGGLVQPGGSLRLSCAASGGTFSLFAMGWFREAPGKEREFVAAIRWSDGSSYYADSVKGRFTISRDNAKNAVHLQSNSLKSEDTAVYYCYADVQGGLHRYWGQGTQVTVSS
# notes: Class 4 Nanobody (cross-reactive: anti-IL-17A, IL-17F and IL-17A/F); not shown: c-myc, His6 tag
# B2: 13B03 (VHH)
# VHH: EVQLVESGGGSVQAGDSLRLSCAASGRANSINWFGWFRQTPGKEREFVAGIRWSDAYTEYANSVKGRFTISRDNAKNTVDLQMDSLKPEDTAVYYCVLDLSTVRYWGQGTQVTVSS
# notes: Class 4 Nanobody (cross-reactive: anti-IL-17A, IL-17F and IL-17A/F); also called IL17MS13B03; not shown: c-myc, His6 tag
# B3: 13E02 (VHH)
# VHH: EVQLVESGGGLVQAGGSLRLSCAASGRTYDAMGWLRQAPGKEREFVAAISGSGDDTYYADSVKGRFTISKDNAGITMYLQMNSLKPEDTAVYYCATRRGLYYVWDSNDYENWGQGTQVTVSS
# notes: Class 4 Nanobody (cross-reactive: anti-IL-17A, IL-17F and IL-17A/F); also called IL17MS13E02; not shown: c-myc, His6 tag
# B4: 10A04 (VHH)
# VHH: EVQLVESGGGLVQPGGSLRLSCAASGFTFSSYWMYWVRQAPGKGLEWISALAPGGGNRYYAESVNGRFTISRDNAKNSLYLQMNSLKSEDTAVYYCAKDHNVGYRTGEYDYGGQGTQVTVSS
# notes: as for B1
# B5: 16A04 (VHH)
# VHH: EVQLVESGGGLVQAGGSLRLSCAASGRTFSSYVVGWFRQAPGKEREFIGAISGSGDSIYYAVSEKDRFTISRDNGKNTLYLQMSSLKAEDTAVYYCTADQEFGYLRFGRSEYWGQGTQVTVSS
# notes: Class 3 Nanobody (anti-IL-17F); also called IL17MS16A04; not shown: c-myc, His6 tag
# B6: 17C01 (VHH)
# VHH: EVQLVESGGRLVQAGGSLRLPCAASGRTFTSYPMGWFRQAPGKEREFVAAISMSGDDAAYADFVRGRFTISRDDARNTVYLHMTSLKPEDTAVYYCAARTSYDGTYDYIDDYSYWGQGTQVTVSS
# notes: as for B1
# B7: 04B09 (VHH)
# VHH: EVQLVESGGGLVQPGGSLRLSCAASGFTLGYYAIGWFRQAPGKEREGVSCDSSSDGDTYYANSVKGRFTISTDNGKNTVYLQMNSLKPEDTAVYYCATCTDWNYDYWGQGTQVTVSS
# notes: Class 2
# B8: 09G10 (VHH)
# VHH: EVQLVESGGGLVQAGGSLRLSCAASDSVFTAKAVGWYRQPPGLQREWVAIITSGGKTNYADSSVKGRFTVSVDKVKNTVTLQMNSLKPEDTAVYYCYAQWMGRDYWGQGTQVTVSS
# notes: Class 2
# Assays:
# [1] = target: T8, human IL-17A/F heterodimer (human, UniProt Q16552 24-155; Q96PD4 31-163, limits assumed, biotinylated with Sulfo-NHS-LC-Biotin in the AlphaScreen assays only); experiment: cell-based or functional assay
# Target sequence in this assay (Q16552 24-155 limits assumed, chain 1 of 2, one chain of several): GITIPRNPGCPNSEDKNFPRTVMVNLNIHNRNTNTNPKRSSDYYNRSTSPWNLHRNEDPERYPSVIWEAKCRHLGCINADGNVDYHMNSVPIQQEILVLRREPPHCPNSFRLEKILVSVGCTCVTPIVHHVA
# human IL-17F [2] = target: T1, human IL-17F; experiment: SPR Biacore, hIL-17F on chip; purified protein
# Method: (§1) Off-rates of the periplasmic extracts containing anti-IL-17 Nanobodies were measured by Surface Plasmon Resonance (SPR) using a Biacore T100 instrument. […] Periplasmic extracts containing IL-17 neutralizing Nanobodies were injected for 2 minutes at a flow rate of 45 μl/min to allow binding to chip-bound antigen. Next, binding buffer without periplasmic extracts was sent over the chip at the same flow rate to allow spontaneous dissociation of bound Nanobody. From the sensorgrams obtained for the different periplasmic extracts koff-values (k₄) were calculated.
# human IL-17A [3] = target: T9, human IL-17A (human, UniProt Q16552 24-155, biotinylated with Sulfo-NHS-LC-Biotin in the AlphaScreen assays only); experiment: AlphaScreen competition, hIL-17A - IL-17RC-Fc;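 further: Read-out after 1 h at room temperature with the receptor Fc-fusion, Acceptor beads and streptavidin-coated Donor beads present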
# T9 construct: also called hIL-17A; recombinant human IL-17A
# Method: (§2) To this mixture, the IL-17RA or IL-17RC Fc-fusions, Acceptor beads and the streptavidin Donor beads were added and further incubated for 1 hour at RT.
# [4] = target: T8, human IL-17A/F heterodimer; experiment: AlphaScreen competition, hIL-17A/F - IL-17RC-Fc
# Target sequence in this assay (Q16552 24-155 limits assumed, chain 1 of 2, one chain of several): as above
# Method: as §2
# human IL-17F [5] = target: T1, human IL-17F; experiment: AlphaScreen competition, hIL-17F - IL-17RA-Fc
# Method: as §2
# human IL-17A [6] = target: T9, human IL-17A; experiment: AlphaScreen competition, hIL-17A - IL-17RA-Fc;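 further: receptor Fc-fusion plus Acceptor and streptavidin Donor beads incubated with the mixture for 1 h at room temperature before reading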
# Method: as §2
# human IL-17F [7] = target: T1, human IL-17F; experiment: AlphaScreen competition, hIL-17F - IL-17RC-Fc
# Method: as §2
# human IL-17A [8] = target: T9, human IL-17A; experiment: SPR Biacore, hIL-17A on chip; purified protein
# human IL-17A [9] = target: T9, human IL-17A; experiment: cell-based or functional assay
# [10] = target: T8, human IL-17A/F heterodimer; experiment: SPR Biacore, hIL-17A/F on chip; purified protein
# [11] = target: T8, human IL-17A/F heterodimer; experiment: AlphaScreen competition, hIL-17A/F - IL-17RA-Fc
# Target sequence in this assay (Q16552 24-155 limits assumed, chain 1 of 2, one chain of several): as above
# Method: as §2
# human IL-17F [12] = target: T1, human IL-17F; experiment: cell-based or functional assay
# human IL-17A [13] = target: T9, human IL-17A; experiment: SPR Biacore, hIL-17A on chip; periplasmic extract (*)
# Method: as §1
# marmoset IL-17F = target: T2, marmoset IL-17F; experiment: ELISA, coated IL-17F;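 further: binding ELISA on coated antigen from various species, with bound Nanobodies revealed by an HRP-linked anti-myc antibody and esTMB substrate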
# Method: (§3) Binding of a selected panel of anti-IL-17 Nanobodies to IL-17 of other species was assessed using a binding ELISA. […] HRP (horseradish peroxidase) conjugated anti-myc (Serotec, MCA 2200P) was used for detection using esTMB as substrate.
# human IL-17F [14] = target: T3, human IL-17F; experiment: ELISA, coated IL-17F;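 further: binding ELISA on coated antigen from various species, with bound Nanobodies revealed by an HRP-linked anti-myc antibody and esTMB substrate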
# Method: as §3
# rat IL-17F = target: T4, rat IL-17F; experiment: ELISA, coated IL-17F;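 further: binding ELISA on coated antigen from various species, with bound Nanobodies revealed by an HRP-linked anti-myc antibody and esTMB substrate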
# Method: as §3
# rat IL-17A = target: T5, rat IL-17A; experiment: ELISA, coated IL-17A
# Method: as §3
# guinea pig IL-17A = guinea pig IL-17A (guinea pig); experiment: ELISA, coated IL-17A
# Method: as §3
# mouse IL-17A = target: T6, mouse IL-17A; experiment: ELISA, coated IL-17A
# Method: as §3
# human IL-17A [15] = target: T10, human IL-17A (human, UniProt Q16552 24-155); experiment: SPR, IL-17A-Nanobody complex over captured IL-17RA
# T10 construct: secreted form (GenBank U32659) expressed in Hek293 with C-terminal 6-His; also called hIL-17A; IL-17A-6HIS
# From the text: The receptor (IL-17RA or IL-17RC) was captured via its human Fc-tail by an anti-human IgG-Fc antibody coated on the chip.
# marmoset IL-17A = target: T7, marmoset IL-17A; experiment: ELISA, coated IL-17A
# Method: as §3
# human IL-17A [16] = target: T10, human IL-17A; experiment: ELISA, coated IL-17A
# Method: as §3
# T9 sequence (Q16552 other isoform, or with tags, fused parts or gaps): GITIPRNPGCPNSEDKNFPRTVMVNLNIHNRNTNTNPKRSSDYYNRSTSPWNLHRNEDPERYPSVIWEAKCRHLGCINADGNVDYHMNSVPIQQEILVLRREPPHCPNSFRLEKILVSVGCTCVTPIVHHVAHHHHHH
# T10 sequence (Q16552 other isoform, or with tags, fused parts or gaps): as above
Binder,"IL-17A/F-induced IL-6 production in HT-1080 cells, Emax [1]","IL-17A/F-induced IL-6 production in HT-1080 cells, IC50 [1]",koff (human IL-17F [2]),IC50 (human IL-17A [3]),IC50 [4],IC50 (human IL-17F [5]),IC50 (human IL-17A [6]),IC50 (human IL-17F [7]),koff (human IL-17A [8]),"IL-17A-induced IL-6 production in HT-1080 cells, Emax (human IL-17A [9])","IL-17A-induced IL-6 production in HT-1080 cells, IC50 (human IL-17A [9])",koff [10],IC50 [11],"IL-17F-induced IL-6 production in HT-1080 cells, Emax (human IL-17F [12])","IL-17F-induced IL-6 production in HT-1080 cells, IC50 (human IL-17F [12])",other results
B1,118%,37.1 nM,0.14 s⁻¹,0.408 nM,0.087 nM,36.6 nM,0.173 nM,13.3 nM,0.00022 s⁻¹,104%,20.6 nM,0.00012 s⁻¹,0.231 nM,–,–,–
B2,112%,26.8 nM,0.0058 s⁻¹,0.202 nM,0.031 nM,2.11 nM,0.056 nM,0.848 nM,6.3e-05 s⁻¹,101%,2.9 nM,3.6e-05 s⁻¹,0.079 nM,85.5%,149 nM,–
B3,108%,21.7 nM,0.0036 s⁻¹,0.187 nM,0.117 nM,0.395 nM,0.067 nM,0.214 nM,0.00013 s⁻¹,102%,3.5 nM,7.1e-05 s⁻¹,0.071 nM,86.5%,104 nM,–
B4,79.5%,122 nM,0.0048 s⁻¹,> 250 nM,15.6 nM,0.746 nM,78.1 nM,0.22 nM,–,31.5%,65.4 nM,0.015 s⁻¹,37.7 nM,102%,112 nM,koff (human IL-17A [13]): < 0.0002 s⁻¹
B5,95%,48.2 nM,0.00053 s⁻¹,> 131 nM,0.389 nM,1.09 nM,> 77.9 nM,0.052 nM,–,–,–,0.003 s⁻¹,90.4 nM,100%,112 nM,–
B6,107%,41.8 nM,0.056 s⁻¹,0.169 nM,0.801 nM,0.296 nM,0.066 nM,0.168 nM,0.00029 s⁻¹,105%,15.1 nM,0.00075 s⁻¹,0.264 nM,–,–,–
B7,–,–,–,–,–,–,–,–,–,–,–,–,–,–,–,OD (marmoset IL-17F): 0.0025 OD; OD (human IL-17F [14]): -0.015 OD; OD (rat IL-17F): 0.0015 OD; OD (rat IL-17A): 0.001 OD; OD (guinea pig IL-17A): 0.006 OD; OD (mouse IL-17A): 0 OD
B8,–,–,–,–,–,–,–,–,–,–,–,–,–,–,–,% Biacore binding (IL-17A-NB)-IL-17RA (human IL-17A [15]): 2.05%; OD (marmoset IL-17F): 0.0045 OD; OD (human IL-17F [14]): -0.018 OD; OD (rat IL-17F): 0.0025 OD; OD (marmoset IL-17A): 1.58 OD; OD (human IL-17A [16]): 1.64 OD; OD (rat IL-17A): 0.003 OD; OD (guinea pig IL-17A): 0.006 OD; OD (mouse IL-17A): -0.001 OD
